# The DeepSol protein solubility set
# Experiment: soluble on expression in E. coli; label from the status in PepcDB or PDB records
row,Sequence,soluble on expression in E. coli
1,MGSDKIHHHHHHMEKDKKIPAKIYPFYPNGQFYFERGVEAFRDQRIKEAIRYLVRASELEPGEAVILCQLAICYTEIGQFHKSNQLLREVLEQRNGNMEYCYYFIANNFAYMKDYRRALQYANRYLDSSTDGEYTEEAKDLIEVLLEETPFGETIENGFSKLEQEFYSYKKEINRYLAEEDSASACDILRKVIDEKPNFWPAYNQLASLYFEQLKEEEGVRVLSDLLSRNPGNLLGICDLFIYHFYKGNRKEADELYLELRDVLPVLAHHKEKLGLIHAMMGEYEEADDLLEQVADLEVTERSKYYYFRAKSSYYLGDVEGAKMFWHSFLECDLYEDVRFPWEQEPDLTNDTRLVLEMLQEEDDLTHMLGVYALTISGNRPELVLFHPLLDMSDWSYMEHLMFTNFDYFPDGAIEQNGYLIAKAMIILKENGILLNEEYMALYKQMFSLVLIDAGKDLILGRYTIETVASAIAKLFLPHLKLQLVEEFECSKCARDIERVLSR,not soluble
2,MGSDKIHHHHHHMEKKRILFLANHFITLYSFRKEMIKEMVKKGHELYLSLPKSEENKYFEDLGCHIVETEIDRRGVNPMKDLKLIYFYKKMIPLVNPDIIFSYTIKPNIYGTIASNGKYKQVCNITGTGETFLKRSIVSTICKVLYKLSIKKCYKVFFQNTGDRDFFIKEGLIRENYAMLPGSGCNLQQHVFMPLPEGDEIRFLFIGRVMKLKGIDQYLQAAEIVKKKYPNTKFYIAGWNEQLEYMKLVEEAQKTGSVEYIGFRKDIDQWIEKCHCTILPSHGGEGVPNVLLESSATGRICIGSKINGTMDVIDDGKTGYLFNTGDGEDLARQIEKFIQLSPEEKASMGKVAREKVEREFDRQIVVKAYLDEVTKC,not soluble
3,MGSDKIHHHHHHMEKLFTYKEFVDMMQKYGIRHTKRKLRRGENLMENASKFSNVVLLINGYISSYTYESPEKLLSIFEPGIFLRYSILEDQPEFVTNIALSDNCEVYEYKKEDIEYALTLFPENFGFQYFFLKRIGRHLYYRALLNGKEHKEKLYYAMKYLGELIGKTDENGNVSLPPEVTLKVLIEYSTLSKAAFYRQRIRLLEQEILKPHENTFIVQKKVASHYENQLTSI,not soluble
4,MGSDKIHHHHHHMEKLQESMYQLIVETSTNLPNDVRRAIAEAKAKENAGTRAALSLSTITENIKMADENISPICQDTGMPTFEIKVPVGVNQIEMKKAIYAAIEQATKDGKLRPNSVDSLTGKNSGNNLGEGTPVIHFEQWEEDYIDARLILKGGGCENKNIQYSLPAELEGLGRAGRDLDGIRKCIMHSVYQAQGQGCSAGFIGVGIGGDRTTSYSLAKEQLFRKVDDVNPNDDLRKLEEYVLENANKLGIGTMGFGGEATLLGCKVGAMNRLPASFFVSVAYNCWAFRRLGVELDAETGEIKKWLYKDGERVDLNEVASQVAATAETTEVREVVLEAPVTEEQIRELKVGDVVIINGMLHTGRDAIHHHLMDHDAPIDLDGQIIYHCGPVMLQDDAGEWHVKAAGPTTSIREEPYQGDIMKKFGIRAVIGKGGMGPKTLKALQEHGGVYLNAIGGAAQYYADCIKKVKGVDLMEFGIPEAMWHLEVEGFAAIVTMDSHGNSLHEDVDKSSLEKLEQFAEKVF,not soluble
5,MGSDKIHHHHHHMEMFAQFSVEGQRMYGMLHTPDGSATGQQAPPQGWPSVVIVHGFTGDKVSSHRLLVLLARRLTAAGIAALRFDCRGSGESQGDFSEMTVGREVQDVEAAFDYVRHQPGLDPERVMLLGYSMGGLVSALAAEKVRPHRFALWSPALPELWLRHLRGGLLPPVISDYGGWPLGRAFLQEVVQTRPLEAAARWGGVAHVFHGDRDQTCPVEWGVRTPKPCAATPPRFPARGTRMTRSNR,not soluble
6,MGSDKIHHHHHHMEMVMKNKRVAIIGAGPSGIAQLRAFESAEKQGHEIPELVCFEKQDTWGGQWNYSWRTGTDSYGEPVHSSMYRNLWSNGPKEVLEFAEYSFDEHFGKPISSYPPREVLWDYIAGRAKKSNVEKYIKFAHVVRWVSFDEATKLFTVTVENLRTGETSSDTYDNVIVGAGHFSFPNVPHFDGVETFPGQIMHAHEFRGAEAVADKDILLIGASYSAEDIGTQAYKMGARSVTFSYRSNPMGYEWPEEMTELPLVERFDGSEVHFVNGEKRKVDIVVFCTGYLHHYPFMPSELTLSSPNNLYPDTLYRGVVSEANNQLFWLGAQDQWLTFNMFDAQAWYVRDVILGRVALPSKEAQRNHMDKWLSRFEGLKSENDQIDFQCDYVEDLIDQTDYPSFDLKEVANILKGWVKSKEEDILNYRDYTYTSVMTGTTSVEHHTPWMIELDDSLERYLSEPQEDEARQVYRGKKVRDKA,not soluble
7,MGSDKIHHHHHHMENIALLGIDLGKHIFHVHAQDKAGHQLWRRKLNRKQLVELVANTPACRIVMESCSGAHHFARRFLQFGHDVKLIAPQYVKPFVKGNKNDFVDAEAICEAASRPAMRFAAVRNEQQQTISALHRTRDMLIRSRGSAHNQIHAYLVEFGVAIGTGPAAIRKLPAVLQAMTYRRALSPCWSNFGITFFISTSRSPLSSAN,not soluble
8,MGSDKIHHHHHHMENIAQWVGIDVSKATLDVYIRPLGKAMIVANTESEISNLVKLLLSYSLNLIVLEATGGLETELVIQLQAALLPVALINPRQGRDFAKATGKLAKTDAIDAQILAHFGEAMKPQVLAIQSETARQLSELISRRRQLVEMQTAEKNRRSLTRGQALADIEAHIEYLEEHLKQLNQKIAELTQNNLQWIDKVNLLKSTPGIGQVISTTLVSDLPELGQLTAKQISRLVGVAPINHDSGQHKGKRMINGGRAHVRATLYMGAVVAMVHNPVIKAFYERLIERGKSKKLALTACVHKMLVILNAMVRDNLPWRVTENLQPIANA,not soluble
9,MGSDKIHHHHHHMENVSSVTSDGSVADVHAERWQELLARLDADAPDIAEGTAAKLLATIPGYELVDAGPIRESSIRNTALIIRVINAGTEPKAEDLPEALRLADERIAQNVPLGSVLHGFRMSLGEILEHLVQLGPEYNIDPGRMLRWSTLMWAVNDAFSTRATRVYRDHEVATAIADSVRRSEWIGKAVSEGSELSELLWGAAMYDVPADTPLRALAATSPDHAKAETQIQKWTQRAGVRVLASVQPSVIVGIVIGEPKRNVDGPGFAVGLGRAEVLSKLADSYKDASLVLKAADNLKLNEVQRAQDLSWKLAIHASPRVTEILAQKYVKPLRESGEFAHEIVESLRAYVDNQMNIPAAARSIPVHVNTLRYRLRRFEELTGCYLEDTSTVIEVSWVLEVFGREL,not soluble
10,MGSDKIHHHHHHMEQLRAELSHLLGEKLSRIECVNEKADTALWALYDSQGNPMPLMARSFSTPGKARQLAWKTTMLARSGTVRMPTIYGVMTHEEHPGPDVLLLERMRGVSVEAPARTPERWEQLKDQIVEALLAWHRQDSRGCVGAVDNTQENFWPSWYRQHVEVLWTTLNQFNNTGLTMQDKRILFRTRECLPALFEGFNDNCVLIHGNFCLRSMLKDSRSDQLLAMVGPGLMLWAPREYELFRLMDNSLAEDLLWSYLQRAPVAESFIWRRWLYVLWDEVAQLVNTGRFSRRNFDLASKSLLPWLA,not soluble
11,MGSDKIHHHHHHMERCSVLRIKRLPESLVRKIAAGEVIHNPSFVLKELVENSLDAQADRIVVEIENGGKNMVRVSDNGIGMTREEALLAIEPYTTSKIESEEDLHRIRTYGFRGEALASIVQVSRAKIVTKTEKDALATQLMIAGGKVEEISETHRDTGTTVEVRDLFFNLPVRRKSLKSSAIELRMCREMFERFVLVRNDVDFVFTSDGKIVHSFPRTQNIFERALLILEDLRKGYITFEEELSGLRIKGIVSSREVTRSSRTGEYFYVNGRFVVSEELHEVLMKVYDLPKRSYPVAVLFIEVNPEELDVNIHPSKIVVKFLNEEKVKKSLEETLKRNLARKWYRSVAYEEISSRALSVAEAPSHRWFLVKGKYAVVEVEDGLLFVDLHALHERTIYEEILSKKSWGKRRVKRNITVVLSREEKQKLEEYGFSFQGEEGALKVIEIPEFLTEDVVEEFFRDFPVDEKLKERIALAACKLATKSGEFDEEIASKLLDVFFKKRFERCPHGRPISFKISYEDMDRFFER,not soluble
12,MGSDKIHHHHHHMERTDDESNKQPVILPPMIRIAYCTPSLHIPGGVERVLTTKANYLAENGNYDIYILLTDGKGKPPCYTLSPKVKIIQLDIDFEELWELPLWKKVPVYLKKQRIYRRKLSAALSHLKPDITVSLLRREINFITSLKDGSKKIGELHVNRKNYRNFEKNESNFIKELFAKLWMKSLVRHLKKLDKFVVLSEEDRANWPELQNVKVISNPLPFQSGTFSDLNNKRITAAGRYTYQKGFDLLLEAWSKICNRHPDWELHIYGKGNKTTYQVLAGKWKLKNLFLENATPDMLCKYHESSIFVSSSRFEGFGMVIAEAMACGVPAVSFACPCGPKDIIRDGEDGLLVENGKTEELAEKINYLIENEQIRKEMGKKARINVQRFAEDVIMQQWIQLFNNLLNGTKQ,not soluble
13,MGSDKIHHHHHHMERTNTTTFKFFSLGGSNEVGRSCHILQYKGKTVMLDAGIHPAYQGLASLPFYDEFDLSKVDILLISHFHLDHAASLPYVMQRTNFQGRVFMTHPTKAIYRWLLRDFVRVTSIGSSSSSMGTKDEGLFSDEDLVDSFDKIETVDYHSTVDVNGIKFTAFHAGHVLGAAMFQIEIAGLRVLFTGDYSREVDRHLNSAEVPPLSSNVLIVESTFGTATHEPRLNRERKLTQLIHSTVMRGGRVLLPVFALGRAQEIMLILDEYWSQHADELGGGQVPIFYASNLAKKCMSVFQTYVNMMNDDIRKKFRDSQTNPFIFKNISYLRNLEDFQDFGPSVMLASPGMLQSGLSRDLLERWCPEDKNLVLITGYSIEGTMAKFIMLEPDTIPSINNPEITIPRRCQVEEISFAAHVDFQENLEFIEKISAPNIILVHGEANPMGRLKSALLSNFASLKGTDNEVHVFNPRNCVEVDLEFQGVKVAKAVGNIVNEIYKEENVEIKEEIAAKIEPIKEENEDNLDSQAEKGLVDEEEHKDIVVSGILVSDDKNFELDFLSLSDLREHHPDLSTTILRERQSVRVNCKKELIYWHILQMFGEAEVLQDDDRVTNQEPKVKEESKDNLTNTGKLILQIMGDIKLTIVNTLAVVEWTQDLMNDTVADSIIAILMNVDSAPASVKLSSHSCDDHDHNNVQSNAQGKIDEVERVKQISRLFKEQFGDCFTLFLNKDEYASNKEETITGVVTIGKSTAKIDFNNMKILECNSNPLKGRVESLLNIGGNLVTPLC,not soluble
14,MGSDKIHHHHHHMERVALACWDDFEAQLKKLDEEANAVEDARGDVRASGYLFRGHGDADYPLQTSLERFFARPLSLADYYRLALVAKPRLEAFTGRRWELPSQEAYAAWLEGAAGSTLDDYPAYDYLAYLRHHGFPSPLLDWTQSPYVAAFFAFRYPLPGAKAVAVYAYRDAPDAKTASSGAARIHRQGPYVSSDKRHFLQQSQYTFCTRTDDAGVVGYIGHEQAFRDVSPADRIRKFLIPLSARRQALMQLNRMNINAFSLFGSEDSLVETIAISDIYLRGGDL,not soluble
15,MGSDKIHHHHHHMESIKQIYRMGHGPSSSHTMGPMRAAQMFLERNRGAVRFNVTLYGSLAATGKGHMTDAAILEVLQPVAKTNITWEPKTFLPFHPNGMLFESYNESGEELDTWTVYSIGGGTLANESFNELRTEQVYDMHTIKEIQAWCEKTGHSYWEYVEQHEGPSIWDYLAEVWEVMQDAVRRGLEAEGILPGGLGIRRKASDYMIRAKGYGSSIKSRGMVYAYALAVSEENACGGKIVTAPTCGSCGVMPAVLYHLKETREFRDSRILRALATAGLFGNVVRTNASVSGAEVGCQGEVGVACAMAAAAASQLFGGTPAQIEYAAEMGLEHHLGLTCDPVCGLVQIPCIERNAFAAARALDANTFSNFSDGKHRVSFDQVVEVMRQTGNDLPSLYKETSEGGLAKNMENSNN,not soluble
16,MGSDKIHHHHHHMETISQEKAIEAMPLEGAERTRFWRDPRFKGMECLSATFITHEFAPHAHDTFSIGAIEAGSQISTIKGERSQTGPGDLYLINPDEIHDGHPGHEGYRYRMVYPPTDLLVEILEDVTGRSFKGTPSFSRLLLTDRELALGFHRAHRALEGKVGTLEADESMFGFLARLFERHGNAIIVPLQTRESSAVHRARDYLVENYTHDIGLEELAKLAGLSRAHLIRAFRKEFHITPHAFLTDKRVREAKALLRRGWSAADTAYHCGFADQAHFSRHFKARTGVTPGAYRSA,not soluble
